Test results published in US20090022663A1 (published 2009).

Molecular target: T1, 161P2F10B variant 1 (human 161P2F10B), on the cell surface (human, UniProt O14638 1-875)
T1 construct: Cell surface pyrophosphatase/phosphodiesterase; also called 161P2F10B v.1; CD203c
Experiment: flow cytometry on cells or ELISA on immobilized 161P2F10B

B1: H16-1.80 (antibody, V domains shown)
VH: QVQLQESGPGLVKPSETLSLTCTVSGGSISSYYWSWIRQPPGKGLEWIGYVYFSGSTNYNPSLKSRVTISVDTSKNQFSLKLSSVTAADTAVYYCARATRDYYYYGMDVWGQGTTVTVSS
VL: DIQMTQSPSSLSASVGDRVTITCRTSHDISNYLNWYQQKPGKAPKLLIYAASSLQSGVPSRFSGSRSGTDFTLTISSLQPEDFATYYCQQTYSTLFTFGPGTKVDIKR
notes: also called Ha16-1.80; HA16-1.80
binding result: binds
